Values quoted from earlier work as cited in article PMC8620506.

Target: NS4B (Dengue virus) (UniProt P27909)

In the case of NS4A (from UniProt P27909), the Kd is given as 50 nM.
